Experimental data published in the Human Domainome abundance scans (Beltran et al. 2025).

B1: Homeobox protein SIX6, residues 134 to 184; numbered along this chain, O95475 (parent)
chain: CFKERTRHLLREWYLQDPYPNPSKKRELAQATGLTPTQVGNWFKNRRQRDR

Variants of: B1
Assay: abundance fitness (aPCA) (normalised: wild type 0, dead -1); higher = more abundant; growth selection in yeast, the domain comes from the species named
Conditions: Homo sapiens

Abundance fitness, by site and new letter:
A31: I 0.253 | K -0.364 | M -0.008 | V -0.151
R7: C -0.306 | F -0.221 | Y -0.147 | M 0.073 | A 0.033 | Q 0.02 | S -0.084
P20: T -0.927 | I -0.466 | A -0.816 | H -0.693 | Q -0.796
Y14: Q -0.918 | L -0.634 | R -0.821 | S -0.888 | W -0.847
H8: C -0.032 | S 0.135 | G -0.1
Q30: V -0.059 | T -0.051 | A -0.219 | C -0.301 | F -0.239
E12: S -0.362 | G -0.393 | T -0.33 | Y -0.454 | H -0.455 | V -0.389 | W -0.413 | R -0.529 | P -1.01
D17: R -0.899 | T -0.914 | P -0.852 | S -0.706 | W -0.912 | Q -0.678 | V -0.934 | K -0.905
Q48: G -0.237 | R 0.515 | M -0.169 | W -0.079 | A -0.315 | C -0.125 | V -0.315
W13: H -0.046 | G -0.157 | C 0.011 | Y -0.319 | Q -0.021
R49: L -0.277 | I -0.482 | K -0.203 | E 0.049 | G -0.357
R11: T 0.054 | P -0.958 | L 0.008 | I 0.051
K25: P -0.648 | I 0.118 | W -0.519 | Y -0.338 | Q 0.158 | R -0.098
L10: V -1.12 | S -0.916 | C -0.608 | T -0.888 | G -0.983 | E -0.741 | N -0.722 | K -0.993 | M -0.676 | A -1.02 | H -0.841
G33: T -0.727 | E -0.722 | C -0.757 | A -0.712 | I -0.936 | M -0.555 | S -0.598 | N -0.499 | D -0.629 | W -0.853
K3: M -0.171 | A -0.19 | R -0.118 | Y -0.672 | G -0.358 | L -0.181 | P -0.1
N21: Y -0.725 | C -0.079 | G -0.238 | H 0.337 | R -0.437 | W -0.817
L15: D -0.418 | G -0.112 | R -0.106 | Y -0.185 | A 0.023 | K 0.003 | V 0.037
R5: D 0.116 | V -0.315 | A -0.377 | S 0.191 | P -0.355 | Q -0.74 | I -0.172
E27: S -0.679 | H -0.773 | D -0.194 | W -0.231 | V -0.731 | M -0.696 | L -0.483 | T -0.513 | P -0.845
L34: W -0.548 | N -0.826 | D -0.936 | K -0.722 | H -0.896 | P -0.747 | V -0.861
R26: F -0.085 | K -0.024 | Q 0.264 | I -0.382 | T -0.429
T32: C -0.174 | S -0.312 | W -0.873 | K -0.932 | P -0.783 | I -0.606
R47: L -0.633 | S -0.845 | N -0.613 | I -1.01 | C -0.662 | M -0.786
F2: T 0.196 | L -0.023 | C 0.025 | M 0.192 | S 0.256
C1: F 0.095 | S 0.116
N41: A -0.511 | K 0.351 | M -0.38 | L -0.278 | E -0.121 | I -0.642 | W -0.754
K24: I -0.051 | Y -0.714 | F -0.984 | E -0.188 | C -0.462 | N -0.281
T6: R -0.3 | M -0.042 | E -0.619 | G -0.24 | H -0.356 | C -0.76 | A -0.036 | D -0.45 | L -0.095
R51: M -0.499 | L -0.431
L9: S -0.793 | H -0.626 | W -1.12 | E -0.751 | T -0.138 | R -0.314
P22: F -0.241 | H -0.467 | G 0.087 | T -0.076 | V -0.682 | S 0.015
R46: A -0.17 | N -0.037 | I -0.845 | F -0.522 | V -0.465
Y19: R -0.177 | G -0.867 | K -0.239 | A -0.526 | N -0.132 | Q -0.414 | S -0.508 | I -0.366 | T -0.088 | P -0.673
D50: K -0.474 | T -0.153 | A -0.383 | Y -0.878 | M -0.417 | G -0.607 | N -0.693 | S -0.312
T35: G -0.886 | S -0.128 | I -0.885 | E -0.399 | C -0.979 | H -0.749 | F -0.773 | Q -0.809 | R -0.813
K44: A -0.195 | M -0.204 | W -0.634 | C -0.361 | F -0.438 | I -0.37 | R -0.112 | P -0.957 | S -0.282 | Y -0.604 | V -0.543
P18: V -0.822 | C -0.314 | L -0.968 | S -0.458 | N -0.696 | A -0.358 | M -0.334 | K -0.42 | T -0.915
N45: M -0.386 | Q -0.303 | G -0.481 | W -0.535 | E -0.266 | T -0.423 | C -0.39 | R -0.062
T37: W -0.545 | G -0.133 | K 0.568 | F -0.28 | H -0.049 | V -0.076 | S -0.043 | P -0.673
L28: I 0.064 | P -0.958 | Q -0.88 | M -0.04 | Y -0.124
Q16: M -0.253 | A -0.027 | F -0.27
S23: R -0.813 | L -0.276 | T -0.436 | F -0.272 | K -0.529
Q38: I -0.702 | R -0.868 | K -0.608 | M -0.442 | N -0.467 | F -0.741 | W -0.742 | A -0.269 | S -0.841 | P -0.9
V39: A -0.9 | Y -0.646 | I -0.096 | Q -0.455 | E -0.906 | T -0.99
G40: W -0.467 | R 0.127 | L -0.615 | K 0.335 | V -0.605 | H -0.159 | E -0.032
F43: Y -1.13 | K -0.881 | H -0.858 | S -0.872 | N -0.882 | M -0.94
A29: G -0.397 | S -0.058 | R -0.982 | I -0.727 | N -1.03 | P -0.916
W42: S -0.898 | G -0.851 | D -0.769 | R -0.762
E4: T -0.362 | Y -0.012 | F -0.56 | V -0.5 | C -0.55 | L -0.271 | S -0.276 | R -0.361 | I -0.335
P36: D -0.357 | E 0.065 | I -0.107 | L -0.079 | T -0.125 | S -0.177 | Q -0.246 | G -0.664
